# Results from paper PMC10951451 (Current Therapeutic Research, Clinical and Experimental, 2024).
# Where two headings read alike, the source gives them in different places.
# Format: in vivo, Norwegian domestic pigs (Sus scrofa domesticus)
# Conditions: for AUC0–∞ with AUC of porcine insulin subtracted: mean (SD)
substance,measurement,setting,value
insulin aspart,AUC0–∞ with AUC of porcine insulin subtracted,"glucagon group: 10 IU insulin aspart sc + 100 µg glucagon, n = 6",7908 (1159) mU/L/min
same,Median AUC0–∞ plasma insulin concentration,glucagon group: 10 IU insulin aspart sc + 100 µg glucagon,8419 mU/L/min
same,AUC0–∞ with AUC of porcine insulin subtracted,"placebo group: 10 IU insulin aspart sc + saline, 1 of 6 pigs excluded",5372 (994) mU/L/min
same,Median AUC0–∞ plasma insulin concentration,placebo group: 10 IU insulin aspart sc + saline,6211 mU/L/min
